Square brackets hold non-standard residues; d marks the D form. Ends that are not written are not given here. Nle = CCCC[C@H](N)C(=O)O

One assay concerns the target T1, hMC3-R (Homo sapiens, UniProt P41968).
T1 construct: expressed in transfected cells
Briefly: competitive inhibition binding assay, 125I-NDP-alpha-MSH, hMC3-R membranes. As to conditions: for % Inhibition at 1 μM at Melanocortin Receptor 3: 1 μM test peptide, 0.4 nM 125I-NDP-alpha-MSH, hMC3-R membranes. In outline: (§1)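 Membranes from hMC3-R, hMC4-R, hMC5-R or B-16 cells (MC1-R) incubated 90 min at room temperature with 0.4 nM 125I-NDP-alpha-MSH and rhenium-complexed test peptide, typically 1 μM, in HEPES pH 7.2 with Mg/Ca/K. Filter-bound radioactivity counted; % inhibition of specific binding (1 μM alpha-MSH defines nonspecific), triplicate means.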

A further assay addresses T2, hMC5-R (Homo sapiens, UniProt P33032).
T2 construct: expressed in transfected cells
Briefly: competitive inhibition binding assay, 125I-NDP-alpha-MSH, hMC5-R membranes. As to conditions: for % Inhibition at 1 μM at Melanocortin Receptor 5: 1 μM test peptide, 0.4 nM 125I-NDP-alpha-MSH, hMC5-R membranes. A digest of the protocol: as §1

The target of a further assay is T3, hMC4-R (Homo sapiens, UniProt P32245).
T3 construct: expressed in transfected cells
Briefly: competitive inhibition binding assay, 125I-NDP-alpha-MSH, hMC4-R membranes. Conditions: for % Inhibition at 1 μM at Melanocortin Receptor 4: 1 μM test peptide, 0.4 nM 125I-NDP-alpha-MSH, hMC4-R membranes. A digest of the protocol: as §1

In the next assay the target is T4, MC1-R (Mus musculus, UniProt Q01727).
T4 construct: membranes prepared from hMC3-R, hMC4-R, hMC5-R, and B-16 mouse melanoma cells (containing MC1-R); endogenous in cells; host or cells: B-16 mouse melanoma cells (membranes)
Briefly: competitive inhibition binding assay, 125I-NDP-alpha-MSH, B-16 mouse melanoma cell membranes. As to conditions: for % Inhibition at 1 μM at Melanocortin Receptor 1: 1 μM test peptide, 0.4 nM 125I-NDP-alpha-MSH, B-16 mouse melanoma cell membranes. In outline: as §1

T3 sequence (P32245 whole entry): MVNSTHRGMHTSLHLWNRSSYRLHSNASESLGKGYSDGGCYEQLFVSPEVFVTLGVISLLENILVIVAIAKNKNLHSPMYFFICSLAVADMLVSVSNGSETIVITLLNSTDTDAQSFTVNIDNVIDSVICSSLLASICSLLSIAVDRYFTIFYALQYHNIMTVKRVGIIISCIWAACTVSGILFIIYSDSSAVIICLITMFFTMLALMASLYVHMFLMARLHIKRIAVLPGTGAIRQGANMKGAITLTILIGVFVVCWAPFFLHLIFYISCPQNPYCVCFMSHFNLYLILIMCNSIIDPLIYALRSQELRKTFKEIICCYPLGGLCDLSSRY
T4 sequence (Q01727 whole entry): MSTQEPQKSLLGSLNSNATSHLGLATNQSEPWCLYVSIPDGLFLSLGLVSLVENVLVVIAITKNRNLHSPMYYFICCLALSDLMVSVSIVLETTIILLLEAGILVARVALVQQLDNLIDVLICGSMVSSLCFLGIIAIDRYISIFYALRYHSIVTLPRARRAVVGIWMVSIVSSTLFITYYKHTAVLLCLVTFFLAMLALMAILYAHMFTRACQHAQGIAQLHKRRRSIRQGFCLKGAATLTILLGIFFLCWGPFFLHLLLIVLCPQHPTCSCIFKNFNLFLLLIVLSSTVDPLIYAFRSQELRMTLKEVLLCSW
T2 sequence (P33032 whole entry): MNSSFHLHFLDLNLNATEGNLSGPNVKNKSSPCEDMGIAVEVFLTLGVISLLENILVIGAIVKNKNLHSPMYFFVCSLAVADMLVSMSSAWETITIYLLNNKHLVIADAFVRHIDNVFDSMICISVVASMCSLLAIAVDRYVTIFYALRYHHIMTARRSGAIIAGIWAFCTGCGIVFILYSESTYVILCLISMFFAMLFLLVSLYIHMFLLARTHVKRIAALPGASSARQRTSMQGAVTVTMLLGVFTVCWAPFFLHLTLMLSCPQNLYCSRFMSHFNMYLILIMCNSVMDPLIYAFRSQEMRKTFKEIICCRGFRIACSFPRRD
T1 sequence (P41968 whole entry): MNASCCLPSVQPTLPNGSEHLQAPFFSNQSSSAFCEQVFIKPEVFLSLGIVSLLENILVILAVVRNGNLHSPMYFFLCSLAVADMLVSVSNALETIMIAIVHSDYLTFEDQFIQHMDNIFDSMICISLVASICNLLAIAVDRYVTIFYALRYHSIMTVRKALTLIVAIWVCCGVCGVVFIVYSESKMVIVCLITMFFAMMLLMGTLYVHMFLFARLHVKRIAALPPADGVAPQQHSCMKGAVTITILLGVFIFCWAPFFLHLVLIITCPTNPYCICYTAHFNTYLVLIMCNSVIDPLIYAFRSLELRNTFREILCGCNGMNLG

Regarding “Ac-Ser-Tyr-Ser-Nle-Glu-His-Phe-Arg-Trp-Gly-Lys-Gly-D-Cys-Val-NH2 (Ac-SYS[Nle]EHFRWGKG[dC]V-NH2; not fully specified (bridges); printed as Ac-Ser-Tyr-Ser-Nle-Glu-His-Phe-Arg-Trp-Gly-Lys-Gly-D-Cys-Val-NH2; numbers in words are those of the source; also: oxorhenium(V) N3S1 chelate (Re(V)=O)) [2-2]”, the % Inhibition (usually the drop in the measured response relative to a control, in per cent) at 1 μM at Melanocortin Receptor 3 with hMC3-R was 26%. Moreover, the “% Inhibition at 1 μM at Melanocortin Receptor 5” value with hMC5-R stood at 32%. For the same substance, the “% Inhibition at 1 μM at Melanocortin Receptor 4” value with hMC4-R is recorded as 28%. Besides, the “% Inhibition at 1 μM at Melanocortin Receptor 1” value with MC1-R is listed as 93%.

Consider “Ac-Ser-Tyr-Ser-Nle-Glu-His-Phe-Arg-Trp-Gly-Cys-Lys-Pro-Val-NH2 (Ac-SYS[Nle]EHFRWGCKPV-NH2; not fully specified (bridges); printed as Ac-Ser-Tyr-Ser-Nle-Glu-His-Phe-Arg-Trp-Gly-Cys-Lys-Pro-Val-NH2; numbers in words are those of the source; also: oxorhenium(V) N3S1 chelate (Re(V)=O)) [1-4]”, for which, in the assay with hMC3-R, the “% Inhibition at 1 μM at Melanocortin Receptor 3” value came out at 0%. For the same substance, the “% Inhibition at 1 μM at Melanocortin Receptor 5” value with hMC5-R is 6%. Also, in the assay with hMC4-R, the “% Inhibition at 1 μM at Melanocortin Receptor 4” value is 0%. For the same substance, the “% Inhibition at 1 μM at Melanocortin Receptor 1” value with MC1-R was 72%.

Consider “Tyr-Val-Nle-Gly-His-Phe-Arg-Trp-Asp-Arg-Phe-NH2 (GHFRWDRF; N-terminal Tyr-Val-Nle, C-terminal amide; printed: Gly-His-Phe-Arg-Trp-Asp-Arg-Phe-) [Parent, reference compound]”, for which the “binding to MC3-R, in words” value in the assay with hMC3-R is “high affinity”. The “binding to MC5-R, in words” value with hMC5-R was “moderate affinity”. In addition, in the assay with hMC4-R, the “binding to MC4-R, in words” value is “moderate affinity”. Further, the “binding to MC1-R, in words” value with MC1-R is recorded as “high affinity”.

“Ac-Ser-Tyr-Ser-Nle-Glu-His-Phe-D-Cys-Arg-Trp-Gly-Lys-Pro-Val-NH2 ({Ac-Ser-Tyr-Ser-Nle-Glu-H2N}-F[dC]RWGKPV-NH2; numbers in words are those of the source; also: oxorhenium(V) N3S1 chelate via Cys (Re(V)=O)) [2-7]”: the “% Inhibition at 1 μM at Melanocortin Receptor 3” value in the assay with hMC3-R was 0%. The “% Inhibition at 1 μM at Melanocortin Receptor 5” value with hMC5-R was determined as 0%. Further, the “% Inhibition at 1 μM at Melanocortin Receptor 4” value with hMC4-R amounted to 6%. The “% Inhibition at 1 μM at Melanocortin Receptor 1” value in the assay with MC1-R turned out to be 54%.

For “Tyr-Val-Nle-Gly-His-Phe-Arg-Trp-Cys-Asp-Arg-Phe-NH2 (YV[Nle]GHFRWCDRF-NH2; numbers in words are those of the source; also: oxorhenium(V) N3S1 chelate (Re=O) with Cys) [4-4]”, the “% Inhibition at 1 μM at Melanocortin Receptor 3” value in the assay with hMC3-R was 20%. For the same substance, in the assay with hMC5-R, the “% Inhibition at 1 μM at Melanocortin Receptor 5” value was determined as 47%. In addition, the “% Inhibition at 1 μM at Melanocortin Receptor 4” value with hMC4-R was found to be 39%. In addition, the “% Inhibition at 1 μM at Melanocortin Receptor 1” value in the assay with MC1-R is recorded as 52%.

On to “Ac-Ser-Tyr-Ser-Nle-D-Cys-Glu-His-Phe-Arg-Trp-Gly-Lys-Pro-Val-NH2 (Ac-SYS[Nle][dC]EHFRWGKPV-NH2; numbers in words are those of the source; also: oxorhenium(V) N3S1 chelate via Cys (Re(V)=O)) [2-10]”, for which, in the assay with hMC3-R, the “% Inhibition at 1 μM at Melanocortin Receptor 3” value came to 0%. The “% Inhibition at 1 μM at Melanocortin Receptor 5” value in the assay with hMC5-R was determined as 0%. For the same substance, the “% Inhibition at 1 μM at Melanocortin Receptor 4” value with hMC4-R came out at 18%. Besides, the “% Inhibition at 1 μM at Melanocortin Receptor 1” value in the assay with MC1-R was 65%.
